According to paper PMC3056349 (Neuron, 2011):

Biological target: PTPσ-CFP (protein tyrosine phosphatase receptor PTPσ expressed in COS cells) (UniProt Q13332 30-1948)
Assay: cell-surface binding assay

Chain of PTPσ-CFP (protein tyrosine phosphatase receptor PTPσ expressed in COS cells) (Q13332 30-1948): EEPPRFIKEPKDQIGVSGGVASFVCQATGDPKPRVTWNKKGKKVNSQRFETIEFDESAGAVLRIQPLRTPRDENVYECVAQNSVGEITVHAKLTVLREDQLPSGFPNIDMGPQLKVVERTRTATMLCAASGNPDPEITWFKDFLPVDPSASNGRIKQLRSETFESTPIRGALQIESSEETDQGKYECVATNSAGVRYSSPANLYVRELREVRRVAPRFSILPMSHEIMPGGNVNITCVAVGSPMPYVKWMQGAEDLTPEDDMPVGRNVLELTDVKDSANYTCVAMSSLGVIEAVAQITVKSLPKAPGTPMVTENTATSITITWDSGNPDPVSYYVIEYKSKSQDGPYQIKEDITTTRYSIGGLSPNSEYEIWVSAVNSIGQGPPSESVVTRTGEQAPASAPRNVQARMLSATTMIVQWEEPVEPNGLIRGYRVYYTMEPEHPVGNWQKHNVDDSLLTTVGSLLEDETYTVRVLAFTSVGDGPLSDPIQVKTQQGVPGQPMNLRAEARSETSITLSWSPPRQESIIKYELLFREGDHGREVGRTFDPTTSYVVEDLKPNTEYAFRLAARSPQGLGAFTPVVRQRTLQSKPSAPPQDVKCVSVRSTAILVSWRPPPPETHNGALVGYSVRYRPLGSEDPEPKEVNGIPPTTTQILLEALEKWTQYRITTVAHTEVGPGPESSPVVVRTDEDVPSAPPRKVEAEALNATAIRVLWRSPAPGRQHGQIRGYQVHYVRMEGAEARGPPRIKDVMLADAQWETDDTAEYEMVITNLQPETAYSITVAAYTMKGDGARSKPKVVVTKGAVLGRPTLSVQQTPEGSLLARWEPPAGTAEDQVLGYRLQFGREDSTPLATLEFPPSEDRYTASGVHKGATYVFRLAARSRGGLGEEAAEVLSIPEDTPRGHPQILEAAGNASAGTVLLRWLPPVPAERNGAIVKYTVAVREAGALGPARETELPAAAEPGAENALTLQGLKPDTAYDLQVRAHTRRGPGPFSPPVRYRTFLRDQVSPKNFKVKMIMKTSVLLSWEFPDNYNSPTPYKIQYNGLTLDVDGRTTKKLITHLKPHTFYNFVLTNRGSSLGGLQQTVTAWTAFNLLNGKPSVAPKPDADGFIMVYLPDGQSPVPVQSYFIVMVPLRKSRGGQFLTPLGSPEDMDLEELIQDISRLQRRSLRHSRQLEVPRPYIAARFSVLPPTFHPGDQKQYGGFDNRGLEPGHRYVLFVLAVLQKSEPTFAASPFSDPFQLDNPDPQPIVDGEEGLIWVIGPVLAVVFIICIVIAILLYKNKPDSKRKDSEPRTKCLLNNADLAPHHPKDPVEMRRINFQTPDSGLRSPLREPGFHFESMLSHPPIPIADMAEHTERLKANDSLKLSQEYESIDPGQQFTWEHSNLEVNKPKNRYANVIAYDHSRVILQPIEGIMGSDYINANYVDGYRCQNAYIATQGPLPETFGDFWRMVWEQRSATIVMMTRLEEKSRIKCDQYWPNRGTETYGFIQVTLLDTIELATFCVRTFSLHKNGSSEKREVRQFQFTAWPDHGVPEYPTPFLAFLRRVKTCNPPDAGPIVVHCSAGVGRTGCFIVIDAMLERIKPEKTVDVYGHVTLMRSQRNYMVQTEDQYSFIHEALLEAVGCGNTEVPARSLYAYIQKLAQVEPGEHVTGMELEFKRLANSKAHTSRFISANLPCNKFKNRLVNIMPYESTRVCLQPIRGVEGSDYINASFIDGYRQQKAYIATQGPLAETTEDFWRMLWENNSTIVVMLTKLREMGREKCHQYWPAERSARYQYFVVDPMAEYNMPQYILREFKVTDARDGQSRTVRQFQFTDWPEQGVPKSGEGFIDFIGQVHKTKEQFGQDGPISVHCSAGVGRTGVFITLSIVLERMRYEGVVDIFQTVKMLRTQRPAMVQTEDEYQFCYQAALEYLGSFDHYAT

B1: TrkC-Fc (soluble purified TrkC ectodomain fused to human immunoglobulin Fc region) (Fc fusion, rat, UniProt Q03351 32-429, looked up)
chain: CPANCVCSKTEINCRRPDDGNLFPLLEGQDSGNSNGNASINITDISRNITSIHIENWRGLHTLNAVDMELYTGLQKLTIKNSGLRNIQPRAFAKNPHLRYINLSSNRLTTLSWQLFQTLSLRELRLEQNFFNCSCDIRWMQLWQEQGEARLDSQSLYCISADGSQLPLFRMNISQCDLPEISVSHVNLTVREGDNAVITCNGSGSPLPDVDWIVTGLQSINTHQTNLNWTNVHAINLTLVNVTSEDNGFTLTCIAENVVGMSNASVALTVYYPPRVVSLVEPEVRLEHCIEFVVRGNPTPTLHWLYNGQPLRESKIIHMDYYQEGEVSEGCLLFNKPTHYNNGNYTLIAKNALGTANQTINGHFLKEPFPESTDFFDFESDASPTPPITVTHKPEEDT
Kd: 9.3 nM
